From article PMC7031066
Changes are numbered by the printed parent chain.

Legend:
PeWRKY1 [1] = target: T1, PeWRKY1 (Populus euphratica, UniProt A0AAJ6U0E7 1-595); experiment: EMSA
PeWRKY1 [2] = target: T1, PeWRKY1; experiment: competition
PeWRKY1 [3] = target: T1, PeWRKY1; experiment: competition; remark: listed apart in the source

B1: PeHA1 promoter W-box probe (dsDNA)
DNA 1: CCCTATCGGGCAAGATTTGACCCGCCCGAGTTGATCCCTC
DNA 2: GAGGGATCAACTCGGGCGGGTCAAATCTTGCCCGATAGGG
B1: binds (PeWRKY1 [1]).

B2: W-box mutant probe (TTGACC to TTAGCC) (dsDNA)
DNA 1: B1 DNA 1 with G19A, A20G
DNA 2: B1 DNA 2 with T21C, C22T
B2: no binding (PeWRKY1 [2]).

B3: PeHA1 promoter W-box unlabeled competitor (dsDNA)
DNA 1: B1 DNA 1
DNA 2: B1 DNA 2
B3: binds (PeWRKY1 [3]).
